From patent US20120329707A1 (INDIANA UNIVERSITY RESEARCH AND TECHNOLOGY, published 2012)
Numbered stars: 1 amine (or outer) side, 2 acyl side, 3 side chain; on linkers, the order of the positions; unused ones are H or OH. Square brackets hold non-standard residues; d marks the D form. Side chains are listed from the residue outwards. Ends that are not written are not given here. * marks the point of attachment. γGlu = O=C(O)[C@H](CCC(=O)[*:2])N[*:1]; Desaminohistidyl = O=C(CCc1c[nH]cn1)*; Palmitoyl = CCCCCCCCCCCCCCCC(=O)*; Aib = CC(C)(N)C(=O)O

T1: GIP receptor
T1 sequence (P48546 whole entry, species assumed, looked up): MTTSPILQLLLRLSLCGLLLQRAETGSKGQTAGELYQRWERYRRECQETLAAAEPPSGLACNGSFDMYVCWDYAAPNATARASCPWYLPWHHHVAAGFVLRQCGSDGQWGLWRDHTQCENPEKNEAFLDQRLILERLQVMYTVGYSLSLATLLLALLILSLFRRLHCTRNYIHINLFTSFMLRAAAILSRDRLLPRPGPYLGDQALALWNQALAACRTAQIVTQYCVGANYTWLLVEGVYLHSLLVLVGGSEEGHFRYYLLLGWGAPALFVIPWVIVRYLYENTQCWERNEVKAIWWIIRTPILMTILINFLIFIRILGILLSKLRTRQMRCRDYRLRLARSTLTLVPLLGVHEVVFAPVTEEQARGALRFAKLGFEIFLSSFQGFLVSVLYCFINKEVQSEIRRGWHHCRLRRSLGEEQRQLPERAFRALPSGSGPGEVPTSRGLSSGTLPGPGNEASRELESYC

B1: peptide of SEQ ID NO: 24 (peptide)
peptide: H[Aib]QGTFTSDK([γGlu-γGlu-Palmitoyl])SKYLD[Aib]RAAQDFVQWLKDGRG-NH2
modifications: N-terminus assumed
SMILES: CCCCCCCCCCCCCCCC(=O)N[C@@H](CCC(=O)N[C@@H](CCC(=O)NCCCC[C@H](NC(=O)[C@H](CC(=O)O)NC(=O)[C@H](CO)NC(=O)[C@@H](NC(=O)[C@H](Cc1ccccc1)NC(=O)[C@@H](NC(=O)CNC(=O)[C@H](CCC(N)=O)NC(=O)C(C)(C)NC(=O)[C@@H](N)Cc1c[nH]cn1)[C@@H](C)O)[C@@H](C)O)C(=O)N[C@@H](CO)C(=O)N[C@@H](CCCCN)C(=O)N[C@@H](Cc1ccc(O)cc1)C(=O)N[C@@H](CC(C)C)C(=O)N[C@@H](CC(=O)O)C(=O)NC(C)(C)C(=O)N[C@@H](CCCNC(=N)N)C(=O)N[C@@H](C)C(=O)N[C@@H](C)C(=O)N[C@@H](CCC(N)=O)C(=O)N[C@@H](CC(=O)O)C(=O)N[C@@H](Cc1ccccc1)C(=O)N[C@H](C(=O)N[C@@H](CCC(N)=O)C(=O)N[C@@H](Cc1c[nH]c2ccccc12)C(=O)N[C@@H](CC(C)C)C(=O)N[C@@H](CCCCN)C(=O)N[C@@H](CC(=O)O)C(=O)NCC(=O)N[C@@H](CCCNC(=N)N)C(=O)NCC(N)=O)C(C)C)C(=O)O)C(=O)O
B2: peptide of SEQ ID NO: 58 (peptide)
peptide: H[Aib]QGTFTSDK(Palmitoyl)SKYLDSRRA[Aib]DFVQWLMNT-NH2
modifications: N-terminus assumed
SMILES: CCCCCCCCCCCCCCCC(=O)NCCCC[C@H](NC(=O)[C@H](CC(=O)O)NC(=O)[C@H](CO)NC(=O)[C@@H](NC(=O)[C@H](Cc1ccccc1)NC(=O)[C@@H](NC(=O)CNC(=O)[C@H](CCC(N)=O)NC(=O)C(C)(C)NC(=O)[C@@H](N)Cc1c[nH]cn1)[C@@H](C)O)[C@@H](C)O)C(=O)N[C@@H](CO)C(=O)N[C@@H](CCCCN)C(=O)N[C@@H](Cc1ccc(O)cc1)C(=O)N[C@@H](CC(C)C)C(=O)N[C@@H](CC(=O)O)C(=O)N[C@@H](CO)C(=O)N[C@@H](CCCNC(=N)N)C(=O)N[C@@H](CCCNC(=N)N)C(=O)N[C@@H](C)C(=O)NC(C)(C)C(=O)N[C@@H](CC(=O)O)C(=O)N[C@@H](Cc1ccccc1)C(=O)N[C@H](C(=O)N[C@@H](CCC(N)=O)C(=O)N[C@@H](Cc1c[nH]c2ccccc12)C(=O)N[C@@H](CC(C)C)C(=O)N[C@@H](CCSC)C(=O)N[C@@H](CC(N)=O)C(=O)N[C@H](C(N)=O)[C@@H](C)O)C(C)C
B3: peptide of SEQ ID NO: 59 (peptide)
peptide: H[Aib]QGTFTSDK(Palmitoyl)SKYLDERRA[Aib]DFVQWLMNT-NH2
modifications: N-terminus assumed
SMILES: CCCCCCCCCCCCCCCC(=O)NCCCC[C@H](NC(=O)[C@H](CC(=O)O)NC(=O)[C@H](CO)NC(=O)[C@@H](NC(=O)[C@H](Cc1ccccc1)NC(=O)[C@@H](NC(=O)CNC(=O)[C@H](CCC(N)=O)NC(=O)C(C)(C)NC(=O)[C@@H](N)Cc1c[nH]cn1)[C@@H](C)O)[C@@H](C)O)C(=O)N[C@@H](CO)C(=O)N[C@@H](CCCCN)C(=O)N[C@@H](Cc1ccc(O)cc1)C(=O)N[C@@H](CC(C)C)C(=O)N[C@@H](CC(=O)O)C(=O)N[C@@H](CCC(=O)O)C(=O)N[C@@H](CCCNC(=N)N)C(=O)N[C@@H](CCCNC(=N)N)C(=O)N[C@@H](C)C(=O)NC(C)(C)C(=O)N[C@@H](CC(=O)O)C(=O)N[C@@H](Cc1ccccc1)C(=O)N[C@H](C(=O)N[C@@H](CCC(N)=O)C(=O)N[C@@H](Cc1c[nH]c2ccccc12)C(=O)N[C@@H](CC(C)C)C(=O)N[C@@H](CCSC)C(=O)N[C@@H](CC(N)=O)C(=O)N[C@H](C(N)=O)[C@@H](C)O)C(C)C
B4: peptide of SEQ ID NO: 25 (peptide)
peptide: H[Aib]QGTFTSDK([γGlu-γGlu-Palmitoyl])SKYLD[Aib]RAAQDFVQWLKDGRP-NH2
modifications: N-terminus assumed
SMILES: CCCCCCCCCCCCCCCC(=O)N[C@@H](CCC(=O)N[C@@H](CCC(=O)NCCCC[C@H](NC(=O)[C@H](CC(=O)O)NC(=O)[C@H](CO)NC(=O)[C@@H](NC(=O)[C@H](Cc1ccccc1)NC(=O)[C@@H](NC(=O)CNC(=O)[C@H](CCC(N)=O)NC(=O)C(C)(C)NC(=O)[C@@H](N)Cc1c[nH]cn1)[C@@H](C)O)[C@@H](C)O)C(=O)N[C@@H](CO)C(=O)N[C@@H](CCCCN)C(=O)N[C@@H](Cc1ccc(O)cc1)C(=O)N[C@@H](CC(C)C)C(=O)N[C@@H](CC(=O)O)C(=O)NC(C)(C)C(=O)N[C@@H](CCCNC(=N)N)C(=O)N[C@@H](C)C(=O)N[C@@H](C)C(=O)N[C@@H](CCC(N)=O)C(=O)N[C@@H](CC(=O)O)C(=O)N[C@@H](Cc1ccccc1)C(=O)N[C@H](C(=O)N[C@@H](CCC(N)=O)C(=O)N[C@@H](Cc1c[nH]c2ccccc12)C(=O)N[C@@H](CC(C)C)C(=O)N[C@@H](CCCCN)C(=O)N[C@@H](CC(=O)O)C(=O)NCC(=O)N[C@@H](CCCNC(=N)N)C(=O)N1CCC[C@H]1C(N)=O)C(C)C)C(=O)O)C(=O)O
B5: peptide of SEQ ID NO: 23 (peptide)
peptide: H[Aib]QGTFTSDK([γGlu-γGlu-Palmitoyl])SKYLD[Aib]RAAQDFVQWLMKGRG-NH2
modifications: N-terminus assumed
SMILES: CCCCCCCCCCCCCCCC(=O)N[C@@H](CCC(=O)N[C@@H](CCC(=O)NCCCC[C@H](NC(=O)[C@H](CC(=O)O)NC(=O)[C@H](CO)NC(=O)[C@@H](NC(=O)[C@H](Cc1ccccc1)NC(=O)[C@@H](NC(=O)CNC(=O)[C@H](CCC(N)=O)NC(=O)C(C)(C)NC(=O)[C@@H](N)Cc1c[nH]cn1)[C@@H](C)O)[C@@H](C)O)C(=O)N[C@@H](CO)C(=O)N[C@@H](CCCCN)C(=O)N[C@@H](Cc1ccc(O)cc1)C(=O)N[C@@H](CC(C)C)C(=O)N[C@@H](CC(=O)O)C(=O)NC(C)(C)C(=O)N[C@@H](CCCNC(=N)N)C(=O)N[C@@H](C)C(=O)N[C@@H](C)C(=O)N[C@@H](CCC(N)=O)C(=O)N[C@@H](CC(=O)O)C(=O)N[C@@H](Cc1ccccc1)C(=O)N[C@H](C(=O)N[C@@H](CCC(N)=O)C(=O)N[C@@H](Cc1c[nH]c2ccccc12)C(=O)N[C@@H](CC(C)C)C(=O)N[C@@H](CCSC)C(=O)N[C@@H](CCCCN)C(=O)NCC(=O)N[C@@H](CCCNC(=N)N)C(=O)NCC(N)=O)C(C)C)C(=O)O)C(=O)O
B6: peptide of SEQ ID NO: 22 (peptide)
peptide: H[Aib]QGTFTSDK([γGlu-γGlu-Palmitoyl])SKYLD[Aib]RAAQDFVQWLMDGRG-NH2
modifications: N-terminus assumed
SMILES: CCCCCCCCCCCCCCCC(=O)N[C@@H](CCC(=O)N[C@@H](CCC(=O)NCCCC[C@H](NC(=O)[C@H](CC(=O)O)NC(=O)[C@H](CO)NC(=O)[C@@H](NC(=O)[C@H](Cc1ccccc1)NC(=O)[C@@H](NC(=O)CNC(=O)[C@H](CCC(N)=O)NC(=O)C(C)(C)NC(=O)[C@@H](N)Cc1c[nH]cn1)[C@@H](C)O)[C@@H](C)O)C(=O)N[C@@H](CO)C(=O)N[C@@H](CCCCN)C(=O)N[C@@H](Cc1ccc(O)cc1)C(=O)N[C@@H](CC(C)C)C(=O)N[C@@H](CC(=O)O)C(=O)NC(C)(C)C(=O)N[C@@H](CCCNC(=N)N)C(=O)N[C@@H](C)C(=O)N[C@@H](C)C(=O)N[C@@H](CCC(N)=O)C(=O)N[C@@H](CC(=O)O)C(=O)N[C@@H](Cc1ccccc1)C(=O)N[C@H](C(=O)N[C@@H](CCC(N)=O)C(=O)N[C@@H](Cc1c[nH]c2ccccc12)C(=O)N[C@@H](CC(C)C)C(=O)N[C@@H](CCSC)C(=O)N[C@@H](CC(=O)O)C(=O)NCC(=O)N[C@@H](CCCNC(=N)N)C(=O)NCC(N)=O)C(C)C)C(=O)O)C(=O)O

Columns and labels:
Assay in all cases: cell-based or functional assay
glucagon receptor = biological target: glucagon receptor
GLP-1 receptor = biological target: GLP-1 receptor
GIP receptor = biological target: T1, GIP receptor

Row | Binder | EC50 (nM) at glucagon receptor (glucagon receptor) [nM] | EC50 (nM) at GLP-1 receptor (GLP-1 receptor) [nM] | EC50 (nM) at GIP receptor (GIP receptor) [nM]
1 | H[dS]QGTFTSDK([γGlu-Palmitoyl])SKYLDERAAQDFVQWLLDGRG-NH2 [peptide of SEQ ID NO: 19] | 0.004 | 0.002 | 0.812
2 | B1 | 0.021 | 0.004 | 1.46
3 | B2 | 0.09 | 0.025 | 35.7
4 | HXQGTFTSDKSKYLDERAAQDFVQWLMDT (aib at 2; Lys 10 with γEγEC16; C-terminal amide) [peptide of SEQ ID NO: 61] | 0.009 | 0.004 | 0.676
5 | B3 | 0.051 | 0.01 | 7.48
6 | Ac-H[dS]QGTFTSDK([γGlu-Palmitoyl])SKYLDERAAQDFVQWLLDT-NH2 [peptide of SEQ ID NO: 21] | 0.005 | 0.009 | 4.5
7 | B4 | 0.035 | 0.003 | 2.36
8 | B5 | 0.023 | 0.004 | 1.58
9 | H[Aib]QGTFTSDK([γGlu-Palmitoyl])SKYLD[Aib]RAAQDFVQWLMKTK[dE]-OH [peptide of SEQ ID NO: 60] | 4.6 | 0.033 | 147
10 | B6 | 0.005 | 0.002 | 2.37
11 | [Desaminohistidyl][dS]QGTFTSDK([γGlu-Palmitoyl])SKYLDERAAQDFVQWLLDT-NH2 [peptide of SEQ ID NO: 20] | 0.006 | 0.004 | 1.38
